Laboratory results as given in publication PMC6646356, “The AAA + ATPase TorsinA polymerizes into hollow helical tubes with 8.5 subunits per turn” (Nature Communications, 2019).
Where a chain is given by its changes, count along the chain named.

B1: MBP-TorsinA (human TorsinA residues 51–332, N-terminally MBP-tagged) (domain or fragment, UniProt O14656 51-332, looked up)
chain: GQKRSLSREALQKDLDDNLFGQHLAKKIILNAVFGFINNPKPKKPLTLSLHGWTGTGKNFVSKIIAENIYEGGLNSDYVHLFVATLHFPHASNITLYKDQLQLWIRGNVSACARSIFIFDEMDKMHAGLIDAIKPFLDYYDLVDGVSYQKAMFIFLSNAGAERITDVALDFWRSGKQREDIKLKDIEHALSVSVFNNKNSGFWHSSLIDRNLIDYFVPFLPLEYKHLKMCIRVEMQSRGYEIDEDIVSRVAEEMTFFPKEERVFSDKGCKTVFTKLDYYYDD
notes: TorsinA, human, residues 51-332; MBP tag is cleavable by human rhinovirus 3C protease; uncleaved in this form; Forms helical polymers of no fixed size; also called MBP-tagged TorsinA; wild-type; source: E. coli LOBSTR(DE3) RIL, purified (amylose resin); not shown: MBP, N-terminal, kept
B2: TorsinA K174E (domain or fragment, human, UniProt O14656 51-332, looked up)
chain: B1 chain with K124E
notes: TorsinA, human, residues 51-332; source: E. coli LOBSTR(DE3) RIL, purified (amylose resin)
B3: TorsinA H140N (domain or fragment, human, UniProt O14656 51-332, looked up)
chain: B1 chain with H90N
notes: as for B2
B4: TorsinA K174A (domain or fragment, human, UniProt O14656 51-332, looked up)
chain: B1 chain with K124A
notes: as for B2
B5: TorsinA (human, residues 51–332), MBP cleaved with 3C protease (domain or fragment, UniProt O14656 51-332, looked up)
chain: B1 chain
notes: TorsinA, human, residues 51-332; Helical polymer, 8.5 subunits per turn; nucleotide modeled as ATP; also called TorsinA filaments; TorsinA polymers; source: E. coli LOBSTR(DE3) RIL, purified (amylose resin), MBP cleaved with 3C protease during dialysis; not shown: MBP, N-terminal, cleaved

What was measured:
[1] = molecular target: the molecule itself; assay: SEC; gel filtration of affinity-purified MBP-TorsinA; self-association, elution in the void volume
[2] = molecular target: the molecule itself; assay: negative-stain electron microscopy; purified TorsinA variants without liposomes, diluted in ATP-containing buffer (HEPES/NaOH pH 8.0, NaCl, 10 mM MgCl2, ATP), 2% uranyl acetate stain; filament formation (self-polymerisation); MBP tag uncleaved or cleaved with 3C protease

Protein	binding result [1]	binding result [2]
B1	binds	
B2		binds
B3		binds
B4		binds
B5		binds
